In patent US20030157685A1 (GENERAL HOSPITAL CORPORATION A MASSACHUSETTS, published 2003):

What was measured:
[1] = molecular target: T1, LexA-N-myc bait (carboxyl-terminal 224 amino acids of human N-myc) (human, UniProt P0A7C2 1-202; P04198 241-464); experiment: yeast two-hybrid
T1 construct: also called PL-LexA-N-myc
T1 sequence (looked up): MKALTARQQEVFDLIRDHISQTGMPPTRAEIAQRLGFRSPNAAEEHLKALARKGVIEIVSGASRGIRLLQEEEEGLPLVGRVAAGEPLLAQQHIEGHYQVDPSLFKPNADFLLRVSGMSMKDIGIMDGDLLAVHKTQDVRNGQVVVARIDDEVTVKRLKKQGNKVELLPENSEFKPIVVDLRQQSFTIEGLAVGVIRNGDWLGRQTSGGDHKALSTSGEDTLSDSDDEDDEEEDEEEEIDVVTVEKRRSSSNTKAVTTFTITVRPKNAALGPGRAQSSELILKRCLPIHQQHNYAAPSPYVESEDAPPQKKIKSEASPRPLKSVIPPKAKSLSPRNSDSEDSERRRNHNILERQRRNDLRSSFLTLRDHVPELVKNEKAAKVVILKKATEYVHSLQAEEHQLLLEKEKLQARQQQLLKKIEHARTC

[2] = molecular target: T2, LexA-C-myc bait (carboxy-terminal 176 amino acids of human C-myc) (human, UniProt P0A7C2 1-202; P01106 279-454); experiment: yeast two-hybrid
T2 construct: also called Lex-C-myc

binding result [1]: binds
binding result [2]: binds
B1: full length Nmi fused in-frame with the transcriptional activator B42 in JG4-5 vector (other, not shown: small tags and cut ends)
chain: MEADKDDTQQILKEHSPDEFIKDEQNKGLIDEITKKNIQLKKEIQKLETELQEATKEFQIKEDIPETKMKFLSVETPENDSQLSNISCSFQVSSKVPYEIQKGQALITFEKEEVAQNVVSMSKHHVQIKDVNLEVTAKPVPLNSGVRFQVYVEVSKMKINVTEIPDTLREDQMRDKLELSFSKFRNGGGEVDRVDYDRQSGSAVITFVEIGVADKILKKKEYPLYINQTCHRVTVSPYTEIHLKKYQIFSGTSKRTVLLTGMEGIQMDEEIVEDLINIHFQRAKNGGGEVDVVKCSLGQPHIAYFEE
notes: Yeast two-hybrid prey; the 307 amino acid protein is meant
